In PMC6302171:

Biological target: GFP-profilin-1 (UniProt P07737)
Experiment: co-immunoprecipitation, densitometric analysis of immunoblots
Conditions: HEK293 cells; cell lysate (1 mg); three independent experiments; parent: est. 6.8; read off a plot

Chain of 3×FLAG-CLIC4 WT, Q9Y696 C35A (Q9Y696 whole entry C35A): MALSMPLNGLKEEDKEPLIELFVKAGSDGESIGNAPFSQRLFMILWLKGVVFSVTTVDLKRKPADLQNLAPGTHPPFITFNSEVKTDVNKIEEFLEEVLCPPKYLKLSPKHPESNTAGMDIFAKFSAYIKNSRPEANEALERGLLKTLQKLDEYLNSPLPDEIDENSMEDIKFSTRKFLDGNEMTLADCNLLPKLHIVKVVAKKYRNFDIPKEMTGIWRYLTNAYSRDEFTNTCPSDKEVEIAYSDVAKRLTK
Chain of GFP-profilin-1 (P07737 2-140): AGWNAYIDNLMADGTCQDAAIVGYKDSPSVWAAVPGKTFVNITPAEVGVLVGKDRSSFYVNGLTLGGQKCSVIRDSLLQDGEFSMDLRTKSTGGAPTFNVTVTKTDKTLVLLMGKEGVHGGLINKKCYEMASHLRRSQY

Substance: 3×FLAG-CLIC4 WT, Q9Y696 C35A
- response: 2 A.U.
